# Reference: publication PMC10522976 (Molecular Therapy Oncolytics, 2023)
# B1: human recombinant mesothelin (MSLN), residues 296-606, His tag (domain or fragment, UniProt Q13421 296-606, looked up)
# chain: EVEKTACPSGKKAREIDESLIFYKKWELEACVDAALLATQMDRVNAIPFTYEQLDVLKHKLDELYPQGYPESVIQHLGYLFLKMSPEDIRKWNVTSLETLKALLEVNKGHEMSPQVATLIDRFVKGRGQLDKDTLDTLTAFYPGYLCSLSPEELSSVPPSSIWAVRPQDLDTCDPRQLDVLYPKARLAFQNMNGSEYFVKIQSFLGGAPTEDLKALSQQNVSMDLATFMKLRTDAVLPLTVAEVQKLLGPHVEGLKAEERHRPVRDWILRQRQDDLDTLGLGLQGGIPNGYLVLDLSMQEALSGTPCLLGP
# Columns and labels:
# [1] = biological target: VH-Fc 3C9-YF750 (human); assay: ELISA
# [2] = biological target: VH-Fc 3C9 (VH 3C9 fused with human IgG1 Fc, bivalent) (human); assay: SPR
# [3] = biological target: B1; assay: ELISA
# [4] = biological target: B1; assay: SPR
# [5] = biological target: mouse MSLN (Mus musculus, UniProt Q61468); assay: ELISA
# mouse MSLN, sequence (Q61468 36-600): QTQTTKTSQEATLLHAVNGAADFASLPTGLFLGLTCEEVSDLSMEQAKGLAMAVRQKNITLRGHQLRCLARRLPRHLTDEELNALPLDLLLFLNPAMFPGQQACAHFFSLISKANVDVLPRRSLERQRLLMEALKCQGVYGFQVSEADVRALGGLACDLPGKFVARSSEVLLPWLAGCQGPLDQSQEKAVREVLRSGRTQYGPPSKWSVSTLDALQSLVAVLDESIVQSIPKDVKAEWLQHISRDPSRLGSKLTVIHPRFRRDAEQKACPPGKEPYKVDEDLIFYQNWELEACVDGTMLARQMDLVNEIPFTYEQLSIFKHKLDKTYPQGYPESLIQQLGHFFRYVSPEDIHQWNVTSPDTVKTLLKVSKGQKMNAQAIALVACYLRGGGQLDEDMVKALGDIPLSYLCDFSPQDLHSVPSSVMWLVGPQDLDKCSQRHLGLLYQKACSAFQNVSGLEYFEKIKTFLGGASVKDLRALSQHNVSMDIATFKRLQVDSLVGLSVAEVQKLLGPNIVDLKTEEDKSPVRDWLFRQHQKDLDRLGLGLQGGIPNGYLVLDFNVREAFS
binding result [1],Kd [2] [nM],EC50 [3] [nM],Kd [4] [nM],binding result [5],Binder
binds,7,,,,B1
,,< 10,< 3,no binding,VH 3C9 (human antibody heavy chain variable domain) (VHH) VHH: DVQLVESGGGVVQPGRSLRLSCAASGFTFSSYAMHWVRQAPGKGLEWVSSISGNSLYKYYADSVKGRFTISRDDSTNTLYLQMNSLRAEDTATYYCTRHWAVGNWGQGTLVTVSS
